Assays:
SARS-CoV N protein = SARS-CoV N protein (SARS-CoV (strain ; reference …, UniProt P59595); assay: SPR
[1] = biological target: SARS-CoV-2 nucleocapsid (N) protein, N-FL (SARS-CoV-2 (reference sequence; isolate …, UniProt P0DTC9); assay: SPR

B1: mAb nCoV396 (antibody, V domains shown)
VH: QVQLVESGGGVVQPGRSLRLSCAASGFTFSSYIMHWVRQAPGKGLEWVAVISYDGSNEAYADSVKGRFTISRDNSKNTLYLQMSSLRAEDTGVYYCARETGDYSSSWYDSWGRGTLVTVSS
VL: QLVLTQSPSASASLGASVKLTCTLSSGHSNYAIAWHQQQPEKGPRYLMKVNSDGSHTKGDGIPDRFSGSSSGAERYLTISSLQSEDEADYYCQTWGTGIQVFGGGTKLTVL
Kd (SARS-CoV N protein): 7.4 nM
Kd [1]: 1.02 nM

From doi:10.1101/2020.09.10.292318 (bioRxiv, 2020)
